According to patent US20150232557A1 (APTEVO RESEARCH AND DEVELOPMENT, published 2015):

Columns and labels:
CD3 [1] = molecular target: T1, CD3 (human, UniProt P07766 23-207); experiment: flow cytometry on Jurkat (CD3+) cells, goat anti-human IgG-FITC detection
T1 construct: whole, on cells; CD3 is a multi-chain complex; also called CD3 on T-cells; CD3 on Jurkat (CD3+) T cell leukemia cells
Description: Jurkat (CD3⁺) T cell leukemia cells were obtained from ATCC (Manassas, Va.), and cultured according to the protocol provided by ATCC. Binding was assessed by incubating 5×10⁵ Jurkat cells for 30 minutes at 4° C. with serially diluted bispecific molecules TSC228 or TSC249, in concentrations from 250 nM to 0.125 nM (TSC249) or 125 nM to 1 pM (TSC228). The cells were washed three times and then incubated with goat anti-human IgG-FITC (1:200 dilution) for another 30 minutes at 4° C. The cells were then washed again three times, fixed in 1% paraformaldehyde and read on a FACS-Calibur instrument.

CD3 [2] = molecular target: T1, CD3; experiment: cell-based or functional assay

T1 sequence (P07766 23-207): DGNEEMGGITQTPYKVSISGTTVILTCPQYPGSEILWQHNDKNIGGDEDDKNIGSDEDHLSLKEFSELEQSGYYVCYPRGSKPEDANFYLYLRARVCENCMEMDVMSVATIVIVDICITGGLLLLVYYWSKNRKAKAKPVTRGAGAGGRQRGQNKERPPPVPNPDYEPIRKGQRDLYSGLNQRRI

Binder | EC50 (CD3 [1]) [nM] | EC50 for RTCC (CD3 [2]) [nM]
TSC228 (HD37 x DRA222 scFv heterodimer) (bispecific antibody, TSC049 is HD37 scFv-hinge-CH2-CH3-CH1; TSC222 is DRA222 scFv-hinge-CH2-CH3-CK(YAE); also called anti-CD19 x anti-CD3 bispecific polypeptide heterodimer; TSC049 + TSC222) chain 1: DIVLTQSPASLAVSLGQRATISCKASQSVDYDGDSYLNWYQQIPGQPPKLLIYDASNLVSGIPPRFSGSGSGTDFTLNIHPVEKVDAATYHCQQSTEDPWTFGGGTKLEIKGGGGSGGGGSGGGGASQVQLQQSGAELVRPGSSVKISCKASGYAFSSYWMNWVKQRPGQGLEWIGQIWPGDGDTNYNGKFKGKATLTADESSSTAYMQLSSLASEDSAVYFCARRETTTVGRYYYAMDYWGQGTSVTVSSSEPKSSDKTHTCPPCPAPEAAGAPSVFLFPPKPKDTLMISRTPEVTCVVVDVSHEDPEVKFNWYVDGVEVHNAKTKPREEQYNSTYRVVSVLTVLHQDWLNGKAYACAVSNKALPAPIEKTISKAKGQPREPQVYTLPPSRDELTKNQVSLTCLVKGFYPSDIAVEWESNGQPENNYKTTPPVLDSDGSFFLYSKLTVDKSRWQQGNVFSCSVMHEALHNHYTQKSLSLSPGKSRASTKGPSVFPLAPSSKSTSGGTAALGCLVKDYFPEPVTVSWNSGALTSGVHTFPAVLQSSGLYSLSSVVTVPSSSLGTQTYICNVNHKPSNTKVDKKV chain 2: QVQLVESGGGVVQPGRSLRLSCKASGYTFTRSTMHWVRQAPGQGLEWIGYINPSSAYTNYNQKFKDRFTISADKSKSTAFLQMDSLRPEDTGVYFCARPQVHYDYNGFPYWGQGTPVTVSSGGGGSGGGGSGGGGSAQDIQMTQSPSSLSASVGDRVTMTCSASSSVSYMNWYQQKPGKAPKRWIYDSSKLASGVPARFSGSGSGTDYTLTISSLQPEDFATYYCQQWSRNPPTFGGGTKLQITSSSEPKSSDKTHTCPPCPAPEAAGAPSVFLFPPKPKDTLMISRTPEVTCVVVDVSHEDPEVKFNWYVDGVEVHNAKTKPREEQYNSTYRVVSVLTVLHQDWLNGKAYACAVSNKALPAPIEKTISKAKGQPREPQVYTLPPSRDELTKNQVSLTCLVKGFYPSDIAVEWESNGQPENNYKTTPPVLDSDGSFFLYSKLTVDKSRWQQGNVFSCSVMHEALHNHYTQKSLSLSPGKSRTVAAPSVFIFPPSDEQLKSGTASVVCLLNYFYPREAKVQWKVDNALQSGNSQESATEQDSKDSTYSLSSELTLSKADYEKHKVYACEVTHQGLSSPVTKSFNRGE | 24.5 | 
humanized TSC249 Scorpion (huVL-VH#2 107-1A4 scFv-Fc-DRA222 scFv) (bispecific antibody, also called anti-PSMA x anti-CD3 bispecific polypeptide homodimer) DIQMTQSPSAMSASVGDRVTITCRASKSISKYLAWFQQKPGKVPKLRIHSGSTLQSGVPSRFSGSGSGTEFTLTISSLQPEDFATYYCQQHIEYPWTFGQGTKVEIKRGGGGSGGGGSGGGGSQVQLVQSGAEVKKPGASVKVSCKASGYTFTDYYMHWVRQAPGQGLEWMGYFNPYNDYTRYAQKFQGRVTMTRDTSISTAYMELSSLRSDDTAVYYCARSDGYYDAMDYWGQGTTVTVSSSEPKSSDKTHTCPPCPAPEAAGAPSVFLFPPKPKDTLMISRTPEVTCVVVDVSHEDPEVKFNWYVDGVEVHNAKTKPREEQYNSTYRVVSVLTVLHQDWLNGKAYACAVSNKALPAPIEKTISKAKGQPREPQVYTLPPSRDELTKNQVSLTCLVKGFYPSDIAVEWESNGQPENNYKTTPPVLDSDGSFFLYSKLTVDKSRWQQGNVFSCSVMHEALHNHYTQKSLSLSPGQRHNNSSLNTGTQMAGHSPNSQVQLVESGGGVVQPGRSLRLSCKASGYTFTRSTMHWVRQAPGQGLEWIGYINPSSAYTNYNQKFKDRFTISADKSKSTAFLQMDSLRPEDTGVYFCARPQVHYDYNGFPYWGQGTPVTVSSGGGGSGGGGSGGGGSAQDIQMTQSPSSLSASVGDRVTMTCSASSSVSYMNWYQQKPGKAPKRWIYDSSKLASGVPARFSGSGSGTDYTLTISSLQPEDFATYYCQQWSRNPPTFGGGTKLQITSSS | 1.9 | 0.0029
TSC194 (huVL-VH#2 107-1A4 scFv-Fc-Cris7 scFv) (bispecific antibody) DIQMTQSPSAMSASVGDRVTITCRASKSISKYLAWFQQKPGKVPKLRIHSGSTLQSGVPSRFSGSGSGTEFTLTISSLQPEDFATYYCQQHIEYPWTFGQGTKVEIKRGGGGSGGGGSGGGGSQVQLVQSGAEVKKPGASVKVSCKASGYTFTDYYMHWVRQAPGQGLEWMGYFNPYNDYTRYAQKFQGRVTMTRDTSISTAYMELSSLRSDDTAVYYCARSDGYYDAMDYWGQGTTVTVSSSEPKSSDKTHTCPPCPAPEAAGAPSVFLFPPKPKDTLMISRTPEVTCVVVDVSHEDPEVKFNWYVDGVEVHNAKTKPREEQYNSTYRVVSVLTVLHQDWLNGKAYACAVSNKALPAPIEKTISKAKGQPREPQVYTLPPSRDELTKNQVSLTCLVKGFYPSDIAVEWESNGQPENNYKTTPPVLDSDGSFFLYSKLTVDKSRWQQGNVFSCSVMHEALHNHYTQKSLSLSPGQRHNNSSLNTGTQMAGHSPNSQVQLVQSGGGVVQPGRSLRLSCKASGYTFTRSTMHWVRQAPGKGLEWIGYINPSSAYTNYNQKFKDRFTISADKSKSTAFLQMDSLRPEDTGVYFCARPQVHYDYNGFPYWGQGTPVTVSSGGGGSGGGGSGGGGSAQDIQMTQSPSSLSASVGDRVTMTCSASSSVSYMNWYQQKPGKAPKRWIYDSSKLASGVPARFSGSGSGTDYTLTISSLQPEDFATYYCQQWSRNPPTFGGGTKLQITR |  | 0.0028
